# Measurements from US10272117B2, “Methods of using an activator of cereblon for neural cell expansion and the treatment of central nervous system disorders” (Celgene Corporation, priority 2014, dated 2019).
# B1: ikzf1-007: Ikaros variant lacking exons 4 and 7, overexpressed as fused Ikzf1:EGFP protein in zebrafish embryos (nucleic acid)
# DNA: ATGGAGACTGAGGAGGCACAGGAAATGTCCCAGATAACAGGAAGAGACAGCCCGATGAATGCTAATGAAGGCGGAGAGGATCAAGATGAGGCCATGCCTGTTCCTGAAGACTTGTCAGCAAGCACTGGCCTCCAACACAACAATCGCACAGATAAACCACTGGCCTGTAATATAAAAGTTGAGGCTCGGAGTGACGAGGAAAACGGTCTGTCCTGTGAGATGAATGGAGAGGCAGAGGAATGTGCAGCTGAGGACTTGCGCATACTCGATGGCTCTGGGGCCAAAGTGAACGGCTCCCACGCAGGCCCCGACAGCAAGCCGGCCGCCTACCCCACAGCCGGGGGCATCCGCCTCCCCAACGGGAAGCTGAAGTGCGATATCTGTGGGATAGTTTGCATTGGGCCCAATGTGTTGATGGTTCACAAGCGAAGTCACACTGGTGAAAGGCCATTCCAGTGCAATCAATGTGGTGCTTCATTCACTCAGAAGGGTAACCTGCTCCGACACATCAAACTTCACTCTGGCGAGAAACCTTTCAAATGTCACCTGTGCAACTATGCTTGCCGCCGCAGAGACGCTCTCACTGGACATCTGCGCACTCATTCGGTTGGAAAGCCCCATAAGTGTGCATATTGCGGACGCAGTTACAAGCAGCGGAGCTCACTGGAGGAACATAAGGAGAGATGTCACAACTACTTGCAGTGCATGGGCCTTCAGAACAGCATTTATACAGGAGAGAATCGTCTGTCAGAGCTATCTTTCGAGAGTGGCTCANGTGAGCTGATGCAGCCCCATGTGATTGATCAGGCCATCAACAGTGCAATTAGCTATCTGGGTGCAGAGTCCTTGCGGCCTCTGGTTCAGACCTCTCCTGGGTCCGCCGACATGGTGGTCAGCCCTCTATACAACCTGCACAAGTCACAAACAGCTGAAGGCAATGGTGTTTCTGCTAAAGACAGCGCCGCAGAGCACCTTCTCCTACTCTCTAAGTCCAAATCCGCCTCTGTTGACAAAGACGGTTCCCCCAGTCCCAGCGGGCAGGATTCCACTGACACTGAGAGCAACAACGAGGAGCGTTCGGCCGGGGTAAGCGGAACAGCAGCCACAGGTGGTCTCATCTACCTGACCAACCACATGGCTCCAGGTATGAGAAATGGAGGCCTGCCAGGGGTAAAGGAAGAACAACACCGGCAGTTTGAGGCTTTGCGAGCAGCAGGAATGGATTTGAGTATAGCGTCATCAGAAGGATTTAAGGTGCTAAGTGGAGATGGAGAAGAATTGAGGGCGTACCGCTGTATCCACTGCAGAGTTTTGTTCCTGGATCATGTCATGTACACCATCCACATGGGCTGTCATGGCTTCCGAGACCCCTTTGAGTGCAACCTATGCGGGTACCGCAGTCAGGACCGTTATGAGTTCTCATCGCACATCACACGTGGAGAGCACCGCATCTGA
# modifications: fused to EGFP; nucleotide sequence of ikzf1-007 Ikaros variant; 775 n = A,T,C or G
# notes: Ikaros variant lacking exons 4 and 7, overexpressed as fused Ikzf1:EGFP protein in zebrafish embryos
# B2: ikzf1-006: Ikaros variant lacking exon 7, overexpressed as fused Ikzf1:EGFP protein in zebrafish embryos (nucleic acid)
# DNA: ATGGAGACTGAGGAGGCACAGGAAATGTCCCAGATAACAGGAAGAGACAGCCCGATGAATGCTAATGAAGGCGGAGAGGATCAAGATGAGGCCATGCCTGTTCCTGAAGACTTGTCAGCAAGCACTGGCCTCCAACACAACAATCGCACAGATAAACCACTGGCCTGTAATATAAAAGTTGAGGCTCGGAGTGACGAGGAAAACGGTCTGTCCTGTGAGATGAATGGAGAGGCAGAGGAATGTGCAGCTGAGGACTTGCGCATACTCGATGGCTCTGGGGCCAAAGTGAACGGCTCCCACGCAGGCCCCGACAGCAAGCCGGCCGCCTACCCCACAGCCGGGGGCATCCGCCTCCCCAACGGGAAGCTGAAGTGCGATATCTGTGGGATAGTTTGCATTGGGCCCAATGTGTTGATGGTTCACAAGCGAAGTCACACTGAAGAAAGAAAGTCAGTTTTGGAACAACAAAAAGGTGAAAGGCCATTCCAGTGCAATCAATGTGGTGCTTCATTCACTCAGAAGGGTAACCTGCTCCGACACATCAAACTTCACTCTGGCGAGAAACCTTTCAAATGTCACCTGTGCAACTATGCTTGCCGCCGCAGAGACGCTCTCACTGGACATCTGCGCACTCATTCGGTTGGAAAGCCCCATAAGTGTGCATATTGCGGACGCAGTTACAAGCAGCGGAGCTCACTGGAGGAACATAAGGAGAGATGTCACAACTACTTGCAGTGCATGGGCCTTCAGAACAGCATTTATACAGGAGAGAATCGTCTGTCAGAGCTATCTTTCGAGAGTGGCTCANGTGAGCTGATGCAGCCCCATGTGATTGATCAGGCCATCAACAGTGCAATTAGCTATCTGGGTGCAGAGTCCTTGCGGCCTCTGGTTCAGACCTCTCCTGGGTCCGCCGACATGGTGGTCAGCCCTCTATACAACCTGCACAAGTCACAAACAGCTGAAGGCAATGGTGTTTCTGCTAAAGACAGCGCCGCAGAGCACCTTCTCCTACTCTCTAAGTCCAAATCCGCCTCTGTTGACAAAGACGGTTCCCCCAGTCCCAGCGGGCAGGATTCCACTGACACTGAGAGCAACAACGAGGAGCGTTCGGCCGGGGTAAGCGGAACAGCAGCCACAGGTGGTCTCATCTACCTGACCAACCACATGGCTCCAGGTATGAGAAATGGAGGCCTGCCAGGGGTAAAGGAAGAACAACACCGGCAGTTTGAGGCTTTGCGAGCAGCAGGAATGGATTTGAGTATAGCGTCATCAGAAGGATTTAAGGTGCTAAGTGGAGATGGAGAAGAATTGAGGGCGTACCGCTGTATCCACTGCAGAGTTTTGTTCCTGGATCATGTCATGTACACCATCCACATGGGCTGTCATGGCTTCCGAGACCCCTTTGAGTGCAACCTATGCGGGTACCGCAGTCAGGACCGTTATGAGTTCTCATCGCACATCACACGTGGAGAGCACCGCATCTGA
# modifications: fused to EGFP; nucleotide sequence of ikzf1-006 Ikaros variant; 808 n = A,T,C or G
# notes: Ikaros variant lacking exon 7, overexpressed as fused Ikzf1:EGFP protein in zebrafish embryos
# System: zebrafish embryos
# Assay: Brain size, morphology and volume of zebrafish embryos (microscopy, MRI)
# Format: in vivo
# Settings: for brain development: 22 hpf
# Description: An aqueous solution of a 25-mer antisense morpholino oligonucleotide (AMO, Gene Tools, LLC) corresponding to the vicinity of the translation initiation codon in the cDNA sequence of the gene to be knocked down ([…] injection conditions were the same as those used for RNA) was injected into the embryos at the 1-cell stage. The sequence of AMO used for the CRBN gene knockdown is 5′-[…]-3′ (SEQ ID NO: 3). The sequence of AMO used for the Lhx2 gene knockdown is 5′-[…]-3′ (SEQ ID NO:4). The sequence of AMO used for the BRD7 gene knockdown is 5′-[…]-3′ (SEQ ID NO:1). The sequence of AMO used for the Ikaros gene knockdown is 5′-[…]-3′ (SEQ ID NO:2). […]
# In order to examine the effect of antagonists of BRD7 on brain growth, BRD7 was knocked down or over-expressed in zebrafish embryos. Knockdown of BRD7 was performed by microinjection of antisense morpholino oligonucleotides (AMO). Overexpression of BRD7 was performed by microinjection of synthesized capped mRNA. AMO or capped mRNA was introduced into one-cell stage embryos by using a nitrogen gas-pressure microinjector IM 300 (Narishige). Conditions for microinjection were as follows: gas pressure was about 15 picosiemens; release period was about 30 to about 50 milliseconds per single injection; concentrations of AMOs and capped mRNA were 400 ng/μl and 250 ng/μl in nuclease-free water, respectively. Capped mRNAs were synthesized in vitro using the mMESSAGE mMachine® in vitro transcription kit (Ambion) from cDNAs cloned into pCS2+ plasmids.
# The brains of the embryos were examined for morphology and volume by magnetic resonance imaging (MRI). FIGS. 9A, 9B, and 9C show microscopic pictures of the untreated, the BRD7-knockdown, and the BRD7-overexpressing zebrafish embryos, respectively. FIGS. 9D, 9E, and 9F show fluorescent microscopic pictures of the brain regions of the untreated, the BRD7-knockdown, and the BRD7-overexpressing zebrafish embryos, respectively. As shown in these figures, the BRD7-knockdown zebrafish embryos had bigger heads than the untreated embryos. […] The volume of the whole brain of the BRD7-knockdown fish was much bigger than that of the untreated fish, while for the BRD7-overexpressing fish, the brain volume was smaller.
# In order to examine the effect of antagonists of Ikaros on brain growth, Ikaros was knocked down or over-expressed in zebrafish embryos. Knockdown of Ikaros was performed by microinjection of antisense morpholino oligonucleotides (AMO). Overexpression of Ikaros was performed by injection of synthesized capped mRNA. AMO or capped mRNA was introduced into one-cell stage embryos by using a nitrogen gas-pressure microinjector IM 300 (Narishige). Conditions for microinjection were as follows: gas pressure was about 15 picosiemens; release period was about 30 to about 50 milliseconds per single injection; concentrations of AMOs and capped mRNA were 400 ng/μl and 250 ng/μl in nuclease-free water, respectively. Capped mRNAs were synthesized in vitro using the mMESSAGE mMachine® in vitro transcription kit (Ambion) from cDNAs cloned into pCS2+ plasmids.
# The brains of the embryos were examined for morphology and volume by magnetic resonance imaging (MRI). FIGS. 15A, 15B, and 15C show microscopic pictures of untreated, Ikaros-knockdown, and Ikaros-overexpressing zebrafish embryos at 55 hpf, respectively. As shown in these figures, the Ikaros-knockdown fish had bigger heads than the untreated embryos. […] The volume of the whole brain of the Ikaros-knockdown fish was much bigger than that of the untreated fish, while for the Ikaros-overexpressing fish, the brain volume was smaller.
Molecule,brain size compared to the normal embryo (FIG. 1),brain development
"5′-TCTGCAACCCAAGATTTCCGTGAGA-3′ (all phosphorodiamidate morpholino (PMO)) [lhx2 gene-knockdown, 25-mer antisense morpholino oligonucleotide (AMO) used for the Lhx2 gene knockdown, reference compound]",brain shrinkage,–
B1,–,reduction of brain development
B2,–,reduction of brain development
